Experimental data: patent US20100093076A1, “SOLUBLE IL-27 RECEPTOR” (priority 2006, published 2010)

What was measured:
huIL-27 = biological target: T1, huIL-27 (Homo sapiens, UniProt Q14213+Q8NEV9); experiment: Phospho-STAT3 (BIO-PLEX) neutralization of IL-27 by soluble receptors, mouse spleens; type: cell-based; conditions: ligand huIL-27 at EC90 (2 nM)
T1 construct: purchased R&D Systems
T1 sequence (Q8NEV9 29-243): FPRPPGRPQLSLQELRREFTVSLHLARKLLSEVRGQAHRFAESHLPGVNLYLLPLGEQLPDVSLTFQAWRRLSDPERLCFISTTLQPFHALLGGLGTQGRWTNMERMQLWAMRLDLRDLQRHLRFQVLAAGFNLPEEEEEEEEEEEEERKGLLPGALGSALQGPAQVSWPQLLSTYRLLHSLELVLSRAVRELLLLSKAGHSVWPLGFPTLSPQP
T1 sequence (Q14213 21-229): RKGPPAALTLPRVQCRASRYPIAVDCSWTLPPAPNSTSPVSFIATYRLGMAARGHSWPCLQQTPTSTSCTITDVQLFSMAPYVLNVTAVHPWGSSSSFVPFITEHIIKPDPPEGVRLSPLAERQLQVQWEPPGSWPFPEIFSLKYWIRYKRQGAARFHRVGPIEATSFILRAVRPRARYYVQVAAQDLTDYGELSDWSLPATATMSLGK
Source text: (§1) Whole mouse spleens were harvested from C57 B1/6 mice and washed two times with 1×PBS before being plated out at 2×10^5 cells/well in assay media (RPMI 1640 plus 10% fetal bovine serum) in 96-well, round-bottom tissue culture plates. Total human PBMC (peripheral blood mononuclear cells) were thawed from a frozen vial collected from a leukapherisis donation and washed two times with 1×PBS before being plated out at 10^6 cells/well in assay media in 96-well, round-bottom tissue culture plates. […] Following pre-incubation, treatments were added to the plates containing the cells and incubated together at 37° C. for 15 minutes.
(§2) Following incubation, cells were washed with ice-cold wash buffer (BIO-PLEX Cell Lysis Kit, BIO-RAD Laboratories, Hercules, Calif.) and put on ice to stop the reaction according to manufacturer's instructions. […]
(§3) Capture beads (BIO-PLEX Phospho-Stat3 Assay, BIO-RAD Laboratories) were combined with 50 μL of 1:1 diluted lysates and added to a 96-well filter plate according to manufacture's instructions (BIO-PLEX Phosphoprotein Detection Kit, BIO-RAD Laboratories). […] After the final wash, beads were resuspended in 125 μL/well of bead suspension buffer, shaken for 30 seconds, and read on an array reader (BIO-PLEX, BIO-RAD Laboratories) according to the manufacture's instructions. Data were analyzed using analytical software (BIO-PLEX MANAGER 3.0, BIO-RAD Laboratories). […]

muIL-27 = biological target: T2, muIL-27 (Mus musculus, UniProt O35228+Q8K3I6); experiment: as above; type: cell-based; conditions: ligand muIL-27 at EC90 (0.2 nM)
T2 construct: purchased R&D Systems
T2 sequence (Q8K3I6 29-234): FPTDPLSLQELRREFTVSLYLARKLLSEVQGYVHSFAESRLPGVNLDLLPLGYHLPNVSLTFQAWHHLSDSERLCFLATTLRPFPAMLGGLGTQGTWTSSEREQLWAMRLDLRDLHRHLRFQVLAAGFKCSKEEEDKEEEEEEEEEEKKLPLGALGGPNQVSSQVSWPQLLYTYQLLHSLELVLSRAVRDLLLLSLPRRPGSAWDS
T2 sequence (O35228 19-228): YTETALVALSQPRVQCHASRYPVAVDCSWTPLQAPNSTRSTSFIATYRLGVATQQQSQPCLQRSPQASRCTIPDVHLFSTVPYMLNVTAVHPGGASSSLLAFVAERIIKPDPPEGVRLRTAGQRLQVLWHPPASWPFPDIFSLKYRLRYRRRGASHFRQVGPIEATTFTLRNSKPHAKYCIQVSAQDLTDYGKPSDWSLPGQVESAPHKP
Source text: as §1, §2, §3

Substance: human IL-27RA-Fc5: Extracellular domain of human IL27RA (amino acids 1 to 512 of SEQ ID NO:3) fused to Fc5, effector minus human gamma1 Fc; SEQ ID NO:16
- IC50 (huIL-27): 320 pM
- IC50 (muIL-27): 140 pM
